Experimental data from paper PMC4699798 (Cell, 2015).

Biological target: Slit-N fused to alkaline phosphatase (Drosophila)
Test: alkaline phosphatase fusion binding assay on beads

B1: Dscam1 EC4 fused to Fc (Fc fusion)
chain: ANPPDADQKGPVFLKEPTNRIDFSNSTGAEIECKASGNPMPEIIWIRSDGTAVGDVPGLRQISSDGKLVFPPFRAEDYRQEVHAQVYACLARNQFGSIISRDVHVRAVVAQYYEADVNKEHVIRGNSAVIKCLIPSFVADFVEVVSWHTDEEENYFPGAEYDGKYLVLPSGELHIREVGPEDGYKSYQCRTKHRLTGETRLSATKGRLVITEPVSSSPPKINALTYKPNIVESMASTAILCPAQGYPAPSFRWYKFIEGTTRKQAVVLNDRVKQVSGTLIIKDAVVEDSGKYLCVVNNSVGGESVETVLTVTAPLSAKIDPPTQTVDFGRPAVFTCQYTGNPIKTVSWMKDGKAIGHSEPVLRIESVKKEDKGMYQCFVRNDQESAEASAELK
- Kd: 22.2 ± 2.85 nM
